From PMC3610634 (PLoS Genetics, 2013) come the findings set out here.

This data set deals with the molecule itself. The data set can be described thus: solubility assay (sedimentation) + TEM; recombinant fibrils in 50 mM HEPES, pH 7.5; solubility assay 16.000 g, 30 min, 4°C; negative staining with 1% uranyl acetate.

B1: recombinant full-length Ure2p fibrils (natural protein, yeast, UniProt P23202 1-354, looked up)
chain: MMNNNGNQVSNLSNALRQVNIGNRNSNTTTDQSNINFEFSTGVNNNNNNNSSSNNNNVQNNNSGRNGSQNNDNENNIKNTLEQHRQQQQAFSDMSHVEYSRITKFFQEQPLEGYTLFSHRSAPNGFKVAIVLSELGFHYNTIFLDFNLGEHRAPEFVSVNPNARVPALIDHGMDNLSIWESGAILLHLVNKYYKETGNPLLWSDDLADQSQINAWLFFQTSGHAPMIGQALHFRYFHSQKIASAVERYTDEVRRVYGVVEMALAERREALVMELDTENAAAYSAGTTPMSQSRFFDYPVWLVGDKLTIADLAFVPWNNVVDRIGINIKIEFPEVYKWTKHMMRRPAVIKALRGE
Consider B1, for which the binding result is reported as “binds”.
